* marks the point of attachment. CH2Cl = ClC*
Tests used:
[1] = molecular target: T1, cell surface expressed hepsin in LnCap-34 cells (Homo sapiens, UniProt P05981); experiment: Pro-MSP activation by cell surface expressed hepsin in LnCap-34 cells; assay type: cell-based; settings: 1 μM inhibitor, 15 minutes preincubation, 125I-pro-MSP 25 μg/ml, 3 hours, 37° C.
T1 construct: expressed in transfected cells; host or cells: LnCaP-34 cells
Method: Confluent LnCap-34 cells cultured in 24-well plates were washed with serum-free RPMI-1640 medium and were incubated either alone or with different anti-hepsin inhibitors (1 μM of anti-hepsin antibody Fab25/1 μM of KD1/1 μM of Ac-KQLR-cmk (‘KLQR” disclosed as SEQ ID NO:10)) in serum-free RPMI-1640 medium for 15 minutes at 37° C. prior to addition of 125I-labeled pro-MSP (25 μg/ml). After incubation for 3 hours at 37° C., aliquots were removed and analyzed by SDS-PAGE (4-20% gradient gel) (Invitrogen, Carlsbad, Calif.) followed by exposure to X-ray films.

Ron signaling pathway = experiment: Immunoblot for phosphorylated downstream kinases in A2780 cells overexpressing human Ron; assay type: cell-based; settings: pro-MSP 10 and 50 ng/ml, 10 nM hepsin, 1 hour
Method: Immunoblot for the detection of phosphorylated kinases: A human ovarian carcinoma cell line (A2780) overexpressing human Ron was used to study the phosphorylation of Ron and other downstream kinase. Cells at a density of 2×10^5 cells/well were cultured in 12-well plate and serum-starved for 24 hours. The cells were then stimulated with either pro-MSP (10 and 50 ng/ml) alone or in presence of 10 nM Hepsin for 1 hour. Mature MSP from a commercial source and hepsin were used as controls. Samples were prepared by washing cells twice with cold PBS followed by addition of 200 ul lysis buffer. Samples were then analyzed by SDS/PAGE on 4-12% Tris-glycine gels (Invitrogen, Carlsbad, Calif.). Proteins were transferred onto nitrocellulose membranes and subsequently treated with anti-Ron antibody or anti-phospho-AKT antibody or anti-phospho-MAPK antibody or anti-phospho-S6 antibody, overnight at 4° C. After washing, membranes were incubated with IRDye800-conjugated goat anti-mouse IgG (Rockland, Gilbertsville, Pa.) and AlexaFluor 680 goat anti-rabbit IgG (Invitrogen) for 1 h. Proteins were detected with the Odyssey Infrared Imaging System (LI-COR Biosciences, Lincoln, Nebr.).

T1 sequence (P05981 whole entry): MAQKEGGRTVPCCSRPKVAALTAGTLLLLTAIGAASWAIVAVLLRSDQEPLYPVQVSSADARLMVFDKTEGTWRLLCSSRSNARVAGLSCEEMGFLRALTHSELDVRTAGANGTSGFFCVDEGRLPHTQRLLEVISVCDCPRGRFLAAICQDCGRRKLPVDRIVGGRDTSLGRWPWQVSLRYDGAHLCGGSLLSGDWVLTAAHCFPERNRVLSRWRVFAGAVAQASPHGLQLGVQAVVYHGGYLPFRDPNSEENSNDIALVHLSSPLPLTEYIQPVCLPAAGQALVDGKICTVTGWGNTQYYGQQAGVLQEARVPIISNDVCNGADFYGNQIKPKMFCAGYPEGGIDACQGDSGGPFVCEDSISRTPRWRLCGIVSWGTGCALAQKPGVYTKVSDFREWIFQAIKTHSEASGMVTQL

Row | Substance | blocking of pro-MSP proteolytic cleavage by cell surface hepsin [1] | phosphorylation of MAP kinase and S6 kinase (activation of Ron signaling pathway) (Ron signaling pathway)
1 | Ac-KQLR-chloromethylketone (Ac-KQLR-CH2Cl; SMILES CC(=O)N[C@@H](CCCCN)C(=O)N[C@@H](CCC(N)=O)C(=O)N[C@@H](CC(C)C)C(=O)N[C@@H](CCCNC(=N)N)C(=O)CCl) [reference compound] | effectively blocked | 
2 | KD1: Kunitz domain 1 (KD1) of HAI-1 or HAI-1B, hepsin inhibitor (TEDYCLASNKVGRCRGSFPRWYYDPTEQICKSFVYGGCLGNKNNYLREEECILACRGV) | effectively blocked | 
3 | hepsin: extracellular domain of the human recombinant hepsin, type II transmembrane serine protease |  | Neither hepsin nor pro-MSP alone was effective

— patent US8697386B2, “Methods and compositions for modulating hepsin activation of macrophage-stimulating protein” (Genentech, Inc., priority 2009, dated 2014)
